Tests used:
Type in all cases: cell-based
S. aureus MN8 Δica = test: Plate lysis, susceptibility of strains to 2638A (Table 1)
Experimental: (§1) Purified proteins for each construct were diluted in sterile nickel column elution buffer, and 6 μL of lysostaphin (11 μg) or the constructs (0.2 nmoles or ˜11 μg for the repaired construct 2638A 1-180Mut-486) was spotted onto a freshly spread lawn of S. aureus strain NRS119 (SA LinR #12; linezolid resistant) growing cells that had air dried for 30 min on tryptic soy agar (TSA) plates. L=[…] Lysostaphin (Sigma); Spot 1=11 μg; all other constructs are 0.2 nmoles (˜11 μg for the repaired construct 2638A 1-180Mut-486) […]. The spotted plates were air dried for 10 min in a laminar flow hood and incubated overnight in a 37° C. environment. Scoring of the cleared spots occurred within 20 h of plating the cells.
(§2) The Plate Lysis assay results (FIG. 3) agree with the turbidity reduction assay. Each of the M23 peptidase dependent or SH3b-truncating constructs showing weak activity on S. aureus strain Newman strain. In addition to the Plate Lysis results in FIG. 3, we have also examined numerous strains with reduced but real lytic activity (Table 1). However, the plate lysis results with the 2638A endolysin constructs are extremely novel in appearance. Plate lysis results are routinely visualized as a discrete cleared spot on a lawn of bacteria after a single overnight of culture. […] In contrast, the 2638A endolysin is unique in that sometimes this cleared zone requires multiple days to appear. […] Thus, there is also a likelihood that the enzyme might work preferentially on late log or stationary phase cells in the plate lysis assay, as the 3 day old culture is likely not growing as quickly as the freshly-plated overnight culture.

S. aureus MN8 = test: as above
Experimental: as §1, §2

S. aureus NRS 382 (MRSA) = test: as above
Experimental: as §1, §2

[1] = test system: S. aureus Newman srtA::ermB; test: as above
Experimental: as §1, §2

S. aureus Newman ΔdltA = test: as above
Experimental: as §1, §2

S. aureus SA113 = test: as above
Experimental: as §1, §2

S. aureus Tanji 20 = test: as above
Experimental: as §1, §2

S. aureus Tanji 33 = test: as above
Experimental: as §1, §2

S. aureus MN8 ΔsarA = test: as above; design: key to Susceptibility to lysis by 2638A, day 1: − = >100 pmol; (+) = very faint lysis zone; + = 100 pmol; ++ = 10 pmol; +++ = 1 pmol
Experimental: as §1, §2

S. aureus NRS 383 (MRSA) = test: as above; design: key to Susceptibility to lysis by 2638A, day 1: − = >100 pmol; (+) = very faint lysis zone; + = 100 pmol; ++ = 10 pmol; +++ = 1 pmol
Experimental: as §1, §2

S. aureus NRS 384 (MRSA) = test: as above; design: key to Susceptibility to lysis by 2638A, day 3+: − = >100 pmol; (+) = very faint lysis zone; + = 100 pmol; ++ = 10 pmol; +++ = 1 pmol
Experimental: as §1, §2

S. aureus Tanji 21 = test: as above; design: key to Susceptibility to lysis by 2638A, day 3+: − = >100 pmol; (+) = very faint lysis zone; + = 100 pmol; ++ = 10 pmol; +++ = 1 pmol
Experimental: as §1, §2

S. aureus Tanji 47 = test: as above; design: key to Susceptibility to lysis by 2638A, day 3+: − = >100 pmol; (+) = very faint lysis zone; + = 100 pmol; ++ = 10 pmol; +++ = 1 pmol
Experimental: as §1, §2

S. simulans = test: as above; design: key to Susceptibility to lysis by 2638A, day 3+: − = >100 pmol; (+) = very faint lysis zone; + = 100 pmol; ++ = 10 pmol; +++ = 1 pmol
Experimental: as §1, §2

[2] = test system: S. aureus strain NRS119 (SA LinR #12; linezolid resistant); test: Plate lysis assay (FIG. 3); conditions: lawn on TSA plates, observed over days
Experimental: as §1
The Plate Lysis assay results (FIG. 3) agree with the turbidity reduction assay. Each of the M23 peptidase dependent or SH3b-truncating constructs showing weak activity on S. aureus strain Newman strain. In addition to the Plate Lysis results in FIG. 3, we have also examined numerous strains with reduced but real lytic activity (Table 1). However, the plate lysis results with the 2638A endolysin constructs are extremely novel in appearance. Plate lysis results are routinely visualized as a discrete cleared spot on a lawn of bacteria after a single overnight of culture. […]

B1: 2638A Endolysin: 486 amino acid staphylococcal phage 2638A endolysin (SEQ ID NO:4), C-terminally 6×His-tagged; M23 peptidase, amidase, SH3b domains (protein)
chain: MLTAIDYLTKKGWKISSDPRTYDGYPKNYGYRNYHENGINYDEFCGGYHRAFDVYSNETNDVPAVTSGTVIEANDYGNFGGTFVIRDANDNDWIYGHLQRGSMRFVVGDKVNQGDIIGLQGNSNYYDNPMSVHLHLQLRPKDAKKDEKSQVCSGLAMEKYDITNLNAKQDKSKNGSVKELKHIYSNHIKGNKITAPKPSIQGVVIHNDYGSMTPSQYLPWLYARENNGTHVNGWASVYANRNEVLWYHPTDYVEWHCGNQWANANLIGFEVCESYPGRISDKLFLENEEATLKVAADVMKSYGLPVNRNTVRLHNEFFGTSCPHRSWDLHVGKGEPYTTTNINKMKDYFIKRIKHYYDGGKLEVSKAATIKQSDVKQEVKKQEAKQIVKATDWKQNKDGIWYKAEHASFTVTAPEGIITRYKGPWTGHPQAGVLQKGQTIKYDEVQKFDGHVWVSWETFEGETVYMPVRTWDAKTGKVGKLWGEIKLEHHHHHH
modifications: C-terminal His6 tag; Mutated Phage 2638a
notes: M23 peptidase, amidase, SH3b domains
Question: Which “Susceptibility to lysis by 2638A, day 1” value (S. aureus MN8 Δica; day 1) does the source give for B1 here?
Answer: − (− = >100 pmol)

Question: What about the “Susceptibility to lysis by 2638A, day 3+” value (S. aureus MN8 Δica; day 3+) of the same molecule?
Answer: ++ (++ = 10 pmol)

Question: And the “Susceptibility to lysis by 2638A, day 1” value (S. aureus MN8; day 1)?
Answer: − (− = >100 pmol)

Question: What about the “Susceptibility to lysis by 2638A, day 3+” value (S. aureus MN8; day 3+) of the same molecule?
Answer: ++ (++ = 10 pmol)

Question: And the “Susceptibility to lysis by 2638A, day 1” value (S. aureus NRS 382 (MRSA); day 1)?
Answer: − (− = >100 pmol)

Question: What about the “Susceptibility to lysis by 2638A, day 3+” value (S. aureus NRS 382 (MRSA); day 3+) of the same molecule?
Answer: − (− = >100 pmol)

Question: What about the “Susceptibility to lysis by 2638A, day 1” value ([1]; day 1) of the same molecule?
Answer: − (− = >100 pmol)

Question: What about the “Susceptibility to lysis by 2638A, day 3+” value ([1]; day 3+) of the same molecule?
Answer: − (− = >100 pmol)

Question: And the “Susceptibility to lysis by 2638A, day 1” value (S. aureus Newman ΔdltA; day 1)?
Answer: − (− = >100 pmol)

Question: What about the “Susceptibility to lysis by 2638A, day 3+” value (S. aureus Newman ΔdltA; day 3+) of the same molecule?
Answer: − (− = >100 pmol)

Question: What about the “Susceptibility to lysis by 2638A, day 1” value (S. aureus SA113; day 1) of the same molecule?
Answer: + (+ = 100 pmol)

Question: And the “Susceptibility to lysis by 2638A, day 3+” value (S. aureus SA113; day 3+)?
Answer: ++ (++ = 10 pmol)

Question: And the “Susceptibility to lysis by 2638A, day 1” value (S. aureus Tanji 20; day 1)?
Answer: − (− = >100 pmol)

Question: And the “Susceptibility to lysis by 2638A, day 3+” value (S. aureus Tanji 20; day 3+)?
Answer: + (+ = 100 pmol)

Question: What about the “Susceptibility to lysis by 2638A, day 1” value (S. aureus Tanji 33; day 1) of the same molecule?
Answer: − (− = >100 pmol)

Question: And the “Susceptibility to lysis by 2638A, day 3+” value (S. aureus Tanji 33; day 3+)?
Answer: + (+ = 100 pmol)

Question: What about the “Susceptibility to lysis by 2638A, day 1” value (S. aureus MN8 ΔsarA; day 1) of the same molecule?
Answer: (+)

Question: And the “Susceptibility to lysis by 2638A, day 3+” value (S. aureus MN8 ΔsarA; day 3+)?
Answer: +++ (+++ = 1 pmol)

Question: What about the “Susceptibility to lysis by 2638A, day 1” value (S. aureus NRS 383 (MRSA); day 1) of the same molecule?
Answer: (+)

Question: What about the “Susceptibility to lysis by 2638A, day 3+” value (S. aureus NRS 383 (MRSA); day 3+) of the same molecule?
Answer: ++ (++ = 10 pmol)

Question: What about the “Susceptibility to lysis by 2638A, day 1” value (S. aureus NRS 384 (MRSA); day 1) of the same molecule?
Answer: − (− = >100 pmol)

Question: And the “Susceptibility to lysis by 2638A, day 3+” value (S. aureus NRS 384 (MRSA); day 3+)?
Answer: (+)

Question: What about the “Susceptibility to lysis by 2638A, day 1” value (S. aureus Tanji 21; day 1) of the same molecule?
Answer: − (− = >100 pmol)

Question: What about the “Susceptibility to lysis by 2638A, day 3+” value (S. aureus Tanji 21; day 3+) of the same molecule?
Answer: (+)

Question: And the “Susceptibility to lysis by 2638A, day 1” value (S. aureus Tanji 47; day 1)?
Answer: − (− = >100 pmol)

Question: What about the “Susceptibility to lysis by 2638A, day 3+” value (S. aureus Tanji 47; day 3+) of the same molecule?
Answer: (+)

Question: And the “Susceptibility to lysis by 2638A, day 1” value (S. simulans; day 1)?
Answer: − (− = >100 pmol)

Question: And the “Susceptibility to lysis by 2638A, day 3+” value (S. simulans; day 3+)?
Answer: (+)

Question: What about the “appearance and persistence of the cleared zone in plate lysis” value [2] of the same molecule?
Answer: very broad, ill-defined region of clearing that grows with time, up to four days

— US9206411B2, “Staphylococcal Phage2638A endolysin amidase domain is lytic for Staphylococcus aureus” (priority 2012, dated 2015)
